Measurements as given in PMC9201815, “Rapid Quantification of C. difficile Glutamate Dehydrogenase and Toxin B (TcdB) with a NanoBiT Split-Luciferase Assay” (Analytical Chemistry, 2022).

How the values were obtained:
[1] = target: inactivated toxoid B (TxB) (C. difficile, inactivated toxoid (how it was inactivated is not stated)); assay: SPR; details: both partners purified
Affimer 4 = assay: SPR; biotinylated Affimer/nanobody immobilised on a streptavidin chip, titrated with serial dilutions of analyte; fit to 1:1 Langmuir model
Affimer 4, sequence (main, as listed by the source): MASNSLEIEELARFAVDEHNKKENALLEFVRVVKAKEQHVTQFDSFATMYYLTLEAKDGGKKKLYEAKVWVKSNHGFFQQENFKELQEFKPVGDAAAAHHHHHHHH

Row | Binder | Kd [1] | koff [1] | kon [1] | Kd (Affimer 4) | koff (Affimer 4) | kon (Affimer 4)
1 | Nanobody 7F (VHH, also called TcdB nanobody 7F) VHH: QVQLVESGGGLVEAGGSLRLSCVVTGSSFSTSTMAWYRQPPGKQREWVASFTSGGAIKYTDSVKGRFTMSRDNAKKMTYLQMENLKPEDTAVYYCALHNAVSGSSWGRGTQVTVSS | 33 nM | 0.0009 s⁻¹ | 28000 M⁻¹ s⁻¹ |  |  | 
2 | Nanobody E3 (VHH, also called TcdB nanobody E3) QVQLVESGGGLVQTGGSLRLSCASSGSIAGFETVTWSRQAPGKSLQWVASMTKTNNEIYSDSVKGRFIISRDNAKNTVYLQMNSLKPEDTGVYFCKGPELRGQGIQVTVSS | 2.5 nM | 0.00025 s⁻¹ | 100000 M⁻¹ s⁻¹ |  |  | 
3 | C. difficile glutamate dehydrogenase (GDH) (enzyme) MSGKDVNVFEMAQSQVKNACDKLGMEPAVYELLKEPMRVIEVSIPVKMDDGSIKTFKGFRSQHNDAVGPTKGGIRFHQNVSRDEVKALSIWMTFKCSVTGIPYGGGKGGIIVDPSTLSQGELERLSRGYIDGIYKLIGEKVDVPAPDVNTNGQIMSWMVDEYNKLTGQSSIGVITGKPVEFGGSLGRTAATGFGVAVTAREAAAKLGIDMKKAKIAVQGIGNVGSYTVLNCEKLGGTVVAMAEWCKSEGSYAIYNENGLDGQAMLDYMKEHGNLLNFPGAKRISLEEFWASDVDIVIPAALENSITKEVAESIKAKLVCEAANGPTTPEADEVFAERGIVLTPDILTNAGGVTVSYFEWVQNLYGYYWSEEEVEQKEEIAMVKAFESIWKIKEEYNVTMREAAYMHSIKKVAEAMKLRGWY |  |  |  | 19 nM | 0.00081 s⁻¹ | 44000 M⁻¹ s⁻¹
